Laboratory results as given in paper PMC5868845.

Biological target: 4F2hc (UniProt P08195)
Test: co-IP from transfected 293FT, western blot
Settings: reference: Flag-NT wild type

Substance | binding against the reference (sites S233) | binding against the reference (sites S237)
Girdin NT domain, 1-256 (from UniProt Q3V6T2) Flag-NT S233A | lost | 
Girdin NT domain, 1-256 (from UniProt Q3V6T2) Flag-NT S237A |  | lost
